Results reported in patent US20100166704.
pKd: −log10 of the molar value.

Experiments:
GST-TIA-1 RRM2 = test: EMSA; conditions: SD ±15 nM, four experiments; relative Kd; n about 1.1
GST-TIAR RRM2 = test: EMSA; conditions: SD ±5 nM, four experiments; relative Kd; n about 1.2

WNV 3'(-) SL RNA (75 nt 3' terminal minus-strand)
pKd (GST-TIA-1 RRM2): 6.95
pKd (GST-TIAR RRM2): 7.82
